Source: the supplement of paper PMC10567573

B1: CHCHD6 (parent)
chain: MYKLSSEQFHEAASKMESTIKPRR

Variants of: B1
Test: protein stability index of a GFP-peptide fusion (GPS, HEK-293T) (PSI 1-6); higher = more stable
Conditions: c terminus: a fixed tail appended
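Note: lentivirally expressed fusions sorted by FACS into six bins by GFP to DsRed ratio, PSI derived from sequencing read proportions per bin multiplied by bin number.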

Protein stability index of substitutions, site by site:
M1: G 4.53, H 4.18, I 3.41, K 4.13, L 3.06, N 4.37, P 4.36, Q 4.24, R 4.33, S 4, T 4.12, V 4.03, W 3.36, Y 3.56
Y2: A 4.55, C 3.53, D 4.83, E 4.42, F 4.01, G 4.48, H 4.44, I 3.98, K 4.7, L 4.34, M 4.45, N 4.51, P 4.77, Q 4.25, R 4.7, S 4.5, T 3.29, V 4.05, W 2.58
K3: A 4.56, C 3.63, D 3.84, E 3.66, F 2.55, G 4.46, H 3.98, I 2.59, L 2.66, M 3.7, N 3.68, P 4.17, Q 4.17, R 3.6, S 2.47, T 3.73, V 2.7, W 2.94, Y 3.08
L4: A 4.69, C 3.29, D 4.53, E 4.34, F 3.5, H 3.58, I 3.18, K 4.49, M 4.27, N 4.23, P 4.61, Q 4.32, R 4.24, S 4.06, T 3.81, V 3.74, W 3.77, Y 3.53
S5: A 4.02, C 3.14, D 4.06, E 4.24, F 2.82, G 4.68, H 4.14, I 2.65, K 3.56, L 3.02, M 3.87, N 4.06, P 3.17, Q 3.78, R 3.94, T 3.64, V 3.43, W 3.17, Y 2.72
S6: A 3.64, C 3.52, D 4.03, E 3.53, F 3.46, G 4.26, H 3.53, I 2.64, K 3.93, L 3.03, M 3.74, N 4.23, P 3.78, Q 4.25, R 3.39, T 4.18, V 3.1, W 2.62, Y 3.39
E7: A 3.6, C 3.29, D 3.7, F 3.1, G 4.39, H 3.44, I 3.1, K 3.71, L 3.71, M 2.97, N 3.58, P 3.64, Q 3.58, R 2.96, S 3.79, T 3.2, V 3.44, W 2.56, Y 2.82
Q8: A 4.25, C 2.96, D 3.73, E 3.75, F 2.65, G 3.35, H 3.22, I 2.84, K 3.84, L 3.22, M 3.39, N 3.86, P 4.39, R 3.86, S 3.74, T 4.16, V 3.49, W 2.5, Y 2.94
F9: A 4.03, C 3.83, D 4.82, E 4.43, G 4.21, H 4.32, I 4.06, K 4.58, L 3.36, M 4.28, N 4.64, P 4.68, Q 4.12, R 4.25, S 4.81, T 4.2, V 3.36, W 3.23, Y 3.98
H10: A 3.66, C 3.93, D 4.15, E 4.24, F 3.44, G 4.28, I 3.08, K 4, L 3.69, M 3.37, N 3.41, P 4.08, Q 3.98, R 3.82, S 4.15, T 3.3, V 3.78, W 2.54, Y 3.52
E11: A 2.99, C 3.06, D 3.65, F 2.65, G 3.8, H 3.22, I 3.34, K 3.69, L 3.26, M 3.28, N 3.4, P 3.6, Q 3.69, R 3.35, S 3.37, T 3.75, V 3.4, W 2.77, Y 3.52
A12: C 3.31, D 4.17, E 4.56, F 3.27, G 3.69, H 4.12, I 2.88, K 3.59, L 2.92, M 3.14, N 2.9, P 4.23, Q 4.04, R 3.55, S 3.97, T 3.75, V 3.58, W 2.55, Y 3.39
A13: C 3.33, D 4.25, E 4.33, F 2.88, G 3.83, H 3.9, I 2.93, K 3.86, L 3.09, M 2.59, N 4.24, P 3.81, Q 3.61, R 3.66, S 3.81, T 4.02, V 4.02, W 2.95, Y 3.36
S14: A 3.56, C 3.29, D 3.61, E 4.12, F 3.05, G 3.87, H 3.9, I 2.86, K 3.68, L 3.1, M 3.47, N 3.78, P 3.82, Q 4.24, R 3.48, T 3.81, V 4.11, W 3.18, Y 2.83
K15: A 3.49, C 3.54, D 4.18, E 4.42, F 3.91, G 3.82, H 3.75, I 3.67, L 3.73, M 3.84, N 4.42, P 3.93, Q 4.74, R 3.72, S 4.04, T 4.37, V 4.2, W 3.73, Y 3.5
M16: A 4.17, C 3.58, D 4.09, E 4.55, F 3.53, G 3.77, H 4.44, I 3.53, K 4.31, L 3.41, N 4.17, P 4.31, Q 4.47, R 3.94, S 4.16, T 4.34, V 4.46, W 3.41, Y 3.45
E17: A 3.24, C 3.46, D 4, F 2.69, G 4.03, H 2.92, I 3.85, K 2.73, L 3.08, M 3.55, N 3.57, P 3.15, Q 3.71, R 3.29, S 3.71, T 3.19, V 3.27, W 2.4, Y 3
S18: A 4.41, C 3.99, D 4.24, E 3.71, F 2.78, G 3.7, H 4.51, I 2.68, K 3.58, L 3.4, M 3.31, N 3.97, P 3.8, Q 3.47, R 4.13, T 4.1, V 3.77
